Results from paper PMC7948974, “Heme oxygenase-1 affects cytochrome P450 function through the formation of heteromeric complexes: Interactions between CYP1A2 and heme oxygenase-1” (The Journal of Biological Chemistry, 2020).

Target: T1, GFP-HO-1 (heme oxygenase 1 with an N-terminal GFP2 tag) (human, UniProt P09601 1-288)
T1 sequence (looked up): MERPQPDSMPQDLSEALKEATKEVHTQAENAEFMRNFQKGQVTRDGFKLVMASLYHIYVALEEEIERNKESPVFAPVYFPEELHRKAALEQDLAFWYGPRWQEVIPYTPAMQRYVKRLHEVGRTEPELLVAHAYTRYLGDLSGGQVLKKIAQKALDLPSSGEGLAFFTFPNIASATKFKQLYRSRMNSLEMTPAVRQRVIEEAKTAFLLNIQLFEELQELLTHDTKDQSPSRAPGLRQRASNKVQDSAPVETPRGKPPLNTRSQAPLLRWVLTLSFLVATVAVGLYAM
Experiment: cell-based or functional assay

- apparent Km^POR•HO-1 from HO-1-mediated heme degradation against POR concentration 0.025-0.5 μM; purified recombinant HO-1 (0.1 μM) and POR in DLPC, in the presence of 0.1 μM CYP1A2: 0.024 µM
B1: POR-Rluc (NADPH-cytochrome P450 reductase with a C-terminal Rluc tag) (enzyme, human, UniProt P16435 1-677, looked up)
chain: MGDSHVDTSSTVSEAVAEEVSLFSMTDMILFSLIVGLLTYWFLFRKKKEEVPEFTKIQTLTSSVRESSFVEKMKKTGRNIIVFYGSQTGTAEEFANRLSKDAHRYGMRGMSADPEEYDLADLSSLPEIDNALVVFCMATYGEGDPTDNAQDFYDWLQETDVDLSGVKFAVFGLGNKTYEHFNAMGKYVDKRLEQLGAQRIFELGLGDDDGNLEEDFITWREQFWPAVCEHFGVEATGEESSIRQYELVVHTDIDAAKVYMGEMGRLKSYENQKPPFDAKNPFLAAVTTNRKLNQGTERHLMHLELDISDSKIRYESGDHVAVYPANDSALVNQLGKILGADLDVVMSLNNLDEESNKKHPFPCPTSYRTALTYYLDITNPPRTNVLYELAQYASEPSEQELLRKMASSSGEGKELYLSWVVEARRHILAILQDCPSLRPPIDHLCELLPRLQARYYSIASSSKVHPNSVHICAVVVEYETKAGRINKGVATNWLRAKEPAGENGGRALVPMFVRKSQFRLPFKATTPVIMVGPGTGVAPFIGFIQERAWLRQQGKEVGETLLYYGCRRSDEDYLYREELAQFHRDGALTQLNVAFSREQSHKVYVQHLLKQDREHLWKLIEGGAHIYVCGDARNMARDVQNTFYDIVAELGAMEHAQAVDYIKKLMTKGRYSLDVWS
